Consider one molecule from patent US11491206 (DUKE UNIVERSITY, dated 2022).

The target in this assay is T1, death receptor 5 (DR5) (UniProt O14763 56-182, limits assumed).
T1 construct: also called TRAIL Receptor 2; TRAILR2
As to the kind of experiment: not stated (told in the legend of the schematic FIG. 1A).

T1 sequence (O14763 56-182 limits assumed): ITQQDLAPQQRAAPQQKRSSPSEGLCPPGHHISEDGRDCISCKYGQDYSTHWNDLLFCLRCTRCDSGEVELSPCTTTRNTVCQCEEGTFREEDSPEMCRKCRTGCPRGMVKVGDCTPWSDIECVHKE

B1: DRA monomer (single Tn3 type III fibronectin domain of tenascin engineered to bind death receptor 5) (designed binder)
chain: GAIEVKDVTDTTALITWAKPWVDPPPLWGCELTYGIKDVPGDRTTIDLQQKHTAYSIGNLKPDTEYEVSLICFDPYGMRSKPAKETFTT
notes: also called Tn3 monomer; monomer of the Tn3 domain
What is called Kd is the concentration at which binding is half-saturated. A high value points to lower affinity. B1 displayed a Kd of 43 nM.
